The source of these data is paper PMC5499601 (Nucleic Acids Research, 2017).

Positions count from the first letter of the chain named. Numbers in names are those of the source.

This data set deals with the molecule itself. Briefly: SEC. A general note: In gel filtration, larger molecules generally elute earlier.

B1: wild-type Bacillus subtilis Spo0J (BsSpo0J) (natural protein)
chain: MAKGLGKGINALFNQVDLSEETVEEIKIADLRPNPYQPRKHFDDEALAELKESVLQHGILQPLIVRKSLKGYDIVAGERRFRAAKLAGLDTVPAIVRELSEALMREIALLENLQREDLSPLEEAQAYDSLLKHLDLTQEQLAKRLGKSRPHIANHLRLLTLPENIQQLIAEGTLSMGHGRTLLGLKNKNKLEPLVQKVIAEQLNVRQLEQLIQQLNQNVPRETKKKEPVKDAVLKERESYLQNYFGTTVNIKRQKKKGKIEIEFFSNEDLDRILELLSERES
For the protein B1, the “stoichiometry N” value amounted to 2.

B2: BsSpo0J R79A (natural protein)
chain: B1 chain with R79A
As to B2, the “stoichiometry N” value was 2.

B3: BsSpo0J G77S (natural protein)
chain: B1 chain with G77S
Turning to B3, the “stoichiometry N” value was determined as 2.

B4: BsSpo0J R105E (natural protein)
chain: B1 chain with R105E
For B4, the “stoichiometry N” value was found to be 2.

B5: BsSpo0J P62A (natural protein)
chain: B1 chain with P62A
In the case of B5, the “stoichiometry N” value came out at 2.

Usually stoichiometry N stands for a count of units in the complex or per binding partner.
